The source of these data is article PMC11104707.

To fix the notation:
B1: N-terminal half of ubiquitin-fused talin head domain (N-Ub-THD), wild type [not stated] / integrin β3 transmembrane domain-tail fused to the C-terminal half of ubiquitin (C-Ub) [not stated] (parent)
chain 1: MVALSLKISIGNVVKTMQFEPSTMVYDACRMIRERIPEALAGPPNDFGLFLSDDDPKKGIWLEAGKALDYYMLRNGDTMEYRKKQRPLKIRMLDGTVKTIMVDDSKTVTDMLMTICARIGITNHDEYSLVRELMEEKKDEGTGTLRKDKTLLRDEKKMEKLKQKLHTDDELNWLDHGRTLREQGVEEHETLLLRRKFFYSDQNVDSRDPVQLNLLYVQARDDILNGSHPVSFDKACEFAGFQCQIQFGPHNEQKHKAGFLDLKDFLPKEYVKQKGERKIFQAHKNCGQMSEIEAKVRYVKLARSLKTYGVSFFLVKEKMKGKNKLVPRLLGITKECVMRVDEKTKEVIQEWSLTNIKRWAASPKSFTLDFGDYQDGYYSVQTTEGEQIAQLIAGYIDIILKKKKSKDHFGLEGDEESTMLEDSVSPKKSTVLQ
chain 2: ILVVLLSVMGAILLIGLAALLIWKLLITIHDRKEFAKFEEERARAKWDTANNPLYKEATSTFTNITYRGT

Variants of B1 are the subject of the test. The experiment in a line: mammalian two-hybrid (split-ubiquitin) assay, GFP expression read by flow cytometry. The following applies: with integrin β3 transmembrane domain-tail fused to the C-terminal half of ubiquitin (C-Ub); CHO cells stably incorporated with 5xGAL4-UAS and the integrin β3 TMD-tail construct; Empty control 0.23 %, N-Ub-THD(ΔF3) 1.96 %; parent: 7.9.
Take chain 1 MVALSLKISIGNVVKTMQFEPSTMVYDACRMIRERIPEALAGPPNDFGLFLSDDDPKKGIWLEAGKALDYYMLRNGDTMEYRKKQRPLKIRMLDGTVKTIMVDDSKTVTDMLMTICARIGITNHDEYSLVRELMEEKKDEGTGTLRKDKTLLRDEKKMEKLKQKLHTDDELNWLDHGRTLREQGVEEHETLLLRRKFFYSDQNVDSRDPVQLNLLYVQARDDILNGSHPVSFDKACEFAGFQCQIQFGPHNEQKHKAGFLDLKDFLPKEYVKQKGERKIFQAHKNCGQMSEIEAKVRYVKLARSLKTYGVSFFLVKEKMKGDNKLVPRLLGITKECVMRVDEKTKEVIQEWSLTNIKRWAASPKSFTLDFGDYQDGYYSVQTTEGEQIAQLIAGYIDIILKKKKSKDHFGLEGDEESTMLEDSVSPKKSTVLQ [chain 1 K322D]: the response (% GFP-expressing cells) was determined as 2.28.
